# B1: FAST kinase domain-containing protein 5, mitochondrial (Homo sapiens), Q7L8L6 (parent)
# chain: MAATLKSLKLVRYRAFCSPSAFGAVRSVSYWNVSSTQHGGQDPPEHISLCHSAKKVKNICSTFSSRRILTTSSAHPGLEFSKTSSSKASTLQLGSPRATGVDEEDVEVFDSFENMRVFLQLRPEYRVHSYNASETSQLLSVSEGELILHKVRVNQNNLQAQVIVDYLCKLSSLPAEQHPVLLGSTSFALLCQLSVKKIQLFDTQDLINVLKAFVILGIPHSHSMLDVYETKCCHQVWEMNMDQLLLVADLWRYLGRKVPRFLNIFSSYLNLHWKDLSLSQLVHLIYVIGENRQVSQDLMQKLESLILKYIDLINLEEVGTICLGFFKSSTNLSEFVMRKIGDLACANIQHLSSRSLVNIVKMFRFTHVDHINFMKQIGEIAPQRIPSLGVQGVMHLTLYCSALRFLNEGVMNAVAASLPPRVAHCRSKDVAKILWSFGTLNYKPPNAEEFYSSLISEIHRKMPEFNQYPEHLPTCLLGLAFLEYFPVELIDFALSPGFVRLAQERTKFDLLKELYTLDGTVGIECPDYRGNRLSTHLQQEGSELLWYLAEKDMNSKPEFLETVFLLETMLGGPQYVKHHMILPHTRSSDLEVQLDVNLKPLPFNREATPAENVAKLRLEHVGVSLTDDLMNKLLKGKARGHFQGKTESEPGQQPMELENKAAVPLGGFLCNVADKSGAMEMAGLCPAACMQTPRMKLAVQFTNRNQYCYGSRDLLGLHNMKRRQLARLGYRVVELSYWEWLPLLKRTRLEKLAFLHEKVFTSAL
# B2: Copine-8 (Homo sapiens), Q86YQ8 (parent)
# chain: MDSRYNSTAGIGDLNQLSAAIPATRVEVSVSCRNLLDRDTFSKSDPICVLYVQGVGNKEWREFGRTEVIDNTLNPDFVRKFILDYFFEERENLRFDLYDVDSKSPNLSKHDFLGQVFCTLGEIVGSQGSRLEKPIVGIPGKKCGTIILTAEELNCCRDAVLMQFCANKLDKKDFFGKSDPFLVFYRSNEDGSFTICHKTEVVKNTLNPVWQAFKISVRALCNGDYDRTIKVEVYDWDRDGSHDFIGEFTTSYRELSRGQSQFNVYEVVNPKKKGKKKKYTNSGTVTLLSFLVETEVSFLDYIKGGTQINFTVAIDFTASNGNPAQPTSLHYMNPYQLNAYGMALKAVGEIVQDYDSDKMFPALGFGAKLPPDGRISHEFALNGNPQNPYCDGIEGVMEAYYRSLKSVQLYGPTNFAPVINHVARYASSVKDGSQYFVLLIVTDGVISDMAQTKESIVNASKLPMSIIIVGVGPAEFDAMVELDGDDVRVSSRGKYAERDIVQFVPFRDYIDRSGNHILSMARLAKDVLAEIPEQFLSYMRARGIKPSPAPPPYTPPTHVLQTQI
# B3: Guanylate cyclase soluble subunit alpha-2 (Homo sapiens), P33402 (parent)
# chain: MSRRKISSESFSSLGSDYLETSPEEEGECPLSRLCWNGSRSPPGPLEPSPAAAAAAAAPAPTPAASAAAAAATAGARRVQRRRRVNLDSLGESISRLTAPSPQTIQQTLKRTLQYYEHQVIGYRDAEKNFHNISNRCSYADHSNKEEIEDVSGILQCTANILGLKFEEIQKRFGEEFFNICFHENERVLRAVGGTLQDFFNGFDALLEHIRTSFGKQATLESPSFLCKELPEGTLMLHYFHPHHIVGFAMLGMIKAAGKKIYRLDVEVEQVANEKLCSDVSNPGNCSCLTFLIKECENTNIMKNLPQGTSQVPADLRISINTFCRAFPFHLMFDPSMSVLQLGEGLRKQLRCDTHKVLKFEDCFEIVSPKVNATFERVLLRLSTPFVIRTKPEASGSENKDKVMEVKGQMIHVPESNSILFLGSPCVDKLDELMGRGLHLSDIPIHDATRDVILVGEQAKAQDGLKKRMDKLKATLERTHQALEEEKKKTVDLLYSIFPGDVAQQLWQGQQVQARKFDDVTMLFSDIVGFTAICAQCTPMQVISMLNELYTRFDHQCGFLDIYKVETIGDAYCVAAGLHRKSLCHAKPIALMALKMMELSEEVLTPDGRPIQMRIGIHSGSVLAGVVGVRMPRYCLFGNNVTLASKFESGSHPRRINVSPTTYQLLKREESFTFIPRSREELPDNFPKEIPGICYFLEVRTGPKPPKPSLSSSRIKKVSYNIGTMFLRETSL
# B4: Peroxiredoxin-5, mitochondrial (Homo sapiens), P30044 (parent)
# chain: MGLAGVCALRRSAGYILVGGAGGQSAAAAARRYSEGEWASGGVRSFSRAAAAMAPIKVGDAIPAVEVFEGEPGNKVNLAELFKGKKGVLFGVPGAFTPGCSKTHLPGFVEQAEALKAKGVQVVACLSVNDAFVTGEWGRAHKAEGKVRLLADPTGAFGKETDLLLDDSLVSIFGNRRLKRFSMVVQDGIVKALNVEPDGTGLTCSLAPNIISQL
# B5: Plasma membrane calcium-transporting ATPase 2 (Homo sapiens), Q01814 (parent)
# chain: MGDMTNSDFYSKNQRNESSHGGEFGCTMEELRSLMELRGTEAVVKIKETYGDTEAICRRLKTSPVEGLPGTAPDLEKRKQIFGQNFIPPKKPKTFLQLVWEALQDVTLIILEIAAIISLGLSFYHPPGEGNEGCATAQGGAEDEGEAEAGWIEGAAILLSVICVVLVTAFNDWSKEKQFRGLQSRIEQEQKFTVVRAGQVVQIPVAEIVVGDIAQVKYGDLLPADGLFIQGNDLKIDESSLTGESDQVRKSVDKDPMLLSGTHVMEGSGRMLVTAVGVNSQTGIIFTLLGAGGEEEEKKDKKGVKKGDGLQLPAADGAAASNAADSANASLVNGKMQDGNVDASQSKAKQQDGAAAMEMQPLKSAEGGDADDRKKASMHKKEKSVLQGKLTKLAVQIGKAGLVMSAITVIILVLYFTVDTFVVNKKPWLPECTPVYVQYFVKFFIIGVTVLVVAVPEGLPLAVTISLAYSVKKMMKDNNLVRHLDACETMGNATAICSDKTGTLTTNRMTVVQAYVGDVHYKEIPDPSSINTKTMELLINAIAINSAYTTKILPPEKEGALPRQVGNKTECGLLGFVLDLKQDYEPVRSQMPEEKLYKVYTFNSVRKSMSTVIKLPDESFRMYSKGASEIVLKKCCKILNGAGEPRVFRPRDRDEMVKKVIEPMACDGLRTICVAYRDFPSSPEPDWDNENDILNELTCICVVGIEDPVRPEVPEAIRKCQRAGITVRMVTGDNINTARAIAIKCGIIHPGEDFLCLEGKEFNRRIRNEKGEIEQERIDKIWPKLRVLARSSPTDKHTLVKGIIDSTHTEQRQVVAVTGDGTNDGPALKKADVGFAMGIAGTDVAKEASDIILTDDNFSSIVKAVMWGRNVYDSISKFLQFQLTVNVVAVIVAFTGACITQDSPLKAVQMLWVNLIMDTFASLALATEPPTETLLLRKPYGRNKPLISRTMMKNILGHAVYQLALIFTLLFVGEKMFQIDSGRNAPLHSPPSEHYTIIFNTFVMMQLFNEINARKIHGERNVFDGIFRNPIFCTIVLGTFAIQIVIVQFGGKPFSCSPLQLDQWMWCIFIGLGELVWGQVIATIPTSRLKFLKEAGRLTQKEEIPEEELNEDVEEIDHAERELRRGQILWFRGLNRIQTQIRVVKAFRSSLYEGLEKPESRTSIHNFMAHPEFRIEDSQPHIPLIDDTDLEEDAALKQNSSPPSSLNKNNSAIDSGINLTTDTSKSATSSSPGSPIHSLETSL
# Variants of: B1
# Details: with scrib_human SCRIB
row,effect of a mutation on the interaction,Variant
1,causing an interaction,T761E

# Variants of: B1
# Details: with scrib_human SCRIB
# Remark: another data set of the same source
# Target sequence in this assay (Q14160 whole entry): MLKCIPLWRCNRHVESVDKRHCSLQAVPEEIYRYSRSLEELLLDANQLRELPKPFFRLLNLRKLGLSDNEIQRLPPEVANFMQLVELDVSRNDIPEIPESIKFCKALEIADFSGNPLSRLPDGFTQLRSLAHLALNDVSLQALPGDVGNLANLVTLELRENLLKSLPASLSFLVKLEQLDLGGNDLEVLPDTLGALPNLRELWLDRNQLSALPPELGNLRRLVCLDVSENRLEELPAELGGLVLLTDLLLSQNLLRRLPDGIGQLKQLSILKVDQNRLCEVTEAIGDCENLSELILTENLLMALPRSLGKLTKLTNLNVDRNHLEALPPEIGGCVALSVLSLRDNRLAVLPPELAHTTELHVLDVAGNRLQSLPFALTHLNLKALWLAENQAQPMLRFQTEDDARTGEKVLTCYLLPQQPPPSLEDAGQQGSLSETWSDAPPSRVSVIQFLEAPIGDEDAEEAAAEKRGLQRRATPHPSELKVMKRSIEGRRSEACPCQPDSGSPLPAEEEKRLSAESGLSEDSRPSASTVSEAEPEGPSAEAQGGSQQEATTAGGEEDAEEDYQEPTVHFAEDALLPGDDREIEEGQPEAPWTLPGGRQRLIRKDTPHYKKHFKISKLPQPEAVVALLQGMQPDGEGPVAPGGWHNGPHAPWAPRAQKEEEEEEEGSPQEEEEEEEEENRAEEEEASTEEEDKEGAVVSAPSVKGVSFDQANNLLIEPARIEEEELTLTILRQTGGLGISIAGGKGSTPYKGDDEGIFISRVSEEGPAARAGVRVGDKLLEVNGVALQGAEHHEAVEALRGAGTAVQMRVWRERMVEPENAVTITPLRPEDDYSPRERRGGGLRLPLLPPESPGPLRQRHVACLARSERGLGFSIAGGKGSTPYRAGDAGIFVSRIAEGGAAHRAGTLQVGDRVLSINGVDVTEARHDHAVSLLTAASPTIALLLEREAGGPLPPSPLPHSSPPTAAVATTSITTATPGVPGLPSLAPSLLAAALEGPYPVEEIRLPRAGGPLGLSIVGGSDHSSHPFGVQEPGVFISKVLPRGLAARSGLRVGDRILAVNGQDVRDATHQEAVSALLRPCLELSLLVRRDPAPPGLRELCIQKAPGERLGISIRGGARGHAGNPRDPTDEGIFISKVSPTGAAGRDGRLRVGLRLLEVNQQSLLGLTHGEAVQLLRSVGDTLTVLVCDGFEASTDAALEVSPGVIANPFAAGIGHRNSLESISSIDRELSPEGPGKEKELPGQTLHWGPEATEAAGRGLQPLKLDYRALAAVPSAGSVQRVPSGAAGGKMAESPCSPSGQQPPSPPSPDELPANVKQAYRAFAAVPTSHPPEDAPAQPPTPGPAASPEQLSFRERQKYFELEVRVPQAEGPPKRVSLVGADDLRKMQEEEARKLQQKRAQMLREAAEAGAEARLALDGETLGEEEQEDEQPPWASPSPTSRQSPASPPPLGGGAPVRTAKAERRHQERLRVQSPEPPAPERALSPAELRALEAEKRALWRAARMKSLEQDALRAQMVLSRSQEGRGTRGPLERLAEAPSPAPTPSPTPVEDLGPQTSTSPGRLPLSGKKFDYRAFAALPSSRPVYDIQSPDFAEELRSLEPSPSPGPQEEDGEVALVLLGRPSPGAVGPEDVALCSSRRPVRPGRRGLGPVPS
row,effect of a mutation on the interaction,Variant
1,increasing interaction strength,T761E

# Variants of: B2
# Details: with scrib_human SCRIB
# Target sequence in this assay (Q14160 whole entry): as above
row,effect of a mutation on the interaction,Variant
1,causing an interaction,MDSRYNSTAGIGDLNQLSAAIPATRVEVSVSCRNLLDRDTFSKSDPICVLYVQGVGNKEWREFGRTEVIDNTLNPDFVRKFILDYFFEERENLRFDLYDVDSKSPNLSKHDFLGQVFCTLGEIVGSQGSRLEKPIVGIPGKKCGTIILTAEELNCCRDAVLMQFCANKLDKKDFFGKSDPFLVFYRSNEDGSFTICHKTEVVKNTLNPVWQAFKISVRALCNGDYDRTIKVEVYDWDRDGSHDFIGEFTTSYRELSRGQSQFNVYEVVNPKKKGKKKKYTNSGTVTLLSFLVETEVSFLDYIKGGTQINFTVAIDFTASNGNPAQPTSLHYMNPYQLNAYGMALKAVGEIVQDYDSDKMFPALGFGAKLPPDGRISHEFALNGNPQNPYCDGIEGVMEAYYRSLKSVQLYGPTNFAPVINHVARYASSVKDGSQYFVLLIVTDGVISDMAQTKESIVNASKLPMSIIIVGVGPAEFDAMVELDGDDVRVSSRGKYAERDIVQFVPFRDYIDRSGNHILSMARLAKDVLAEIPEQFLSYMRARGIKPSPAPPPYTPPEHVLQTQI [T557E]

# Variants of: B3
# Details: with scrib_human SCRIB
# Target sequence in this assay (Q14160 whole entry): as the sequence (Q14160 whole entry) above
row,effect of a mutation on the interaction,Variant
1,increasing interaction strength,S731E

# Variants of: B4
# Details: with scrib_human SCRIB
# Target sequence in this assay (Q14160 whole entry): as the sequence (Q14160 whole entry) above
row,effect of a mutation on the interaction,Variant
1,with no effect,MGLAGVCALRRSAGYILVGGAGGQSAAAAARRYSEGEWASGGVRSFSRAAAAMAPIKVGDAIPAVEVFEGEPGNKVNLAELFKGKKGVLFGVPGAFTPGCSKTHLPGFVEQAEALKAKGVQVVACLSVNDAFVTGEWGRAHKAEGKVRLLADPTGAFGKETDLLLDDSLVSIFGNRRLKRFSMVVQDGIVKALNVEPDGTGLTCSLAPNIIEQL [S212E]

# Variants of: B5
# Details: with scrib_human SCRIB
# Target sequence in this assay (Q14160 whole entry): as the sequence (Q14160 whole entry) above
row,effect of a mutation on the interaction,Variant
1,decreasing interaction strength,T1241E
2,with no effect,S1238E;S1242E

# Variants of: B5
# Details: with scrib_human SCRIB
# Remark: another data set of the same source
# Target sequence in this assay (Q14160 whole entry): as the sequence (Q14160 whole entry) above
row,effect of a mutation on the interaction,Variant
1,disrupting interaction strength,S1238E

# Reference: IntAct's records for PubMed 30126976
